Measurements taken from patent US20250145694A1 (GUANGDONG FEIPENG BIOLOGICAL, published 2025).

Target: T1, CTNI quality control recombinant antigen (human, UniProt P19429 1-210, limits assumed)
T1 construct: Recombinant antigen produced by the applicant; also called CTNI quality control recombinant protein (antigen produced by the company); cardiac troponin I
Assay: BLI, antibody on AMC sensor, cTnI in solution
Procedure: With an AMC sensor, the purified antibody was diluted to 10 μg/ml with PBST, and CTNI quality control recombinant protein (antigen produced by the company) was gradient diluted with PBST to 769.2 nmol/ml, 384.6 nmol/ml, 192.3 nmol/ml, 96.2 nmol/ml, 48.1 nmol/ml, 24 nmol/ml, 12 nmol/ml, and 0 nmol/ml.

T1 sequence (P19429 whole entry): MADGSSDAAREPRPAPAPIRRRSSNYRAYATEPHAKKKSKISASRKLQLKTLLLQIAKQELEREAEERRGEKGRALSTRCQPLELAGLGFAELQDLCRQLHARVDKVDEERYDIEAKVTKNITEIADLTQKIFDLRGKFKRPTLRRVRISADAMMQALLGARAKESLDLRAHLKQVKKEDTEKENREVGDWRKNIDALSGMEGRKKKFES

Binder | Kd | koff | kon
Mutation 1-25 (antibody, assembled FR/CDR/constant) heavy: EVQMVESGGGLLKPGGSLKLSCAASGFTFSNYAMSWVRQTPEKRLEWVATISSGGSYSFYPDSVKGRFTISRDNAKNTLYLQMLSLRSEDTAMYYCARRDNYFGSSFMDYWGQGSSVTVSSAKTTPPSVYPLAPGSAAQTNSMVTLGCLVKGYFPEPVTVTWNSGSLSSGVHTFPAVLQSDLYTLSSSVTVPSSTWPSQTVTCNVAHPASSTKVDKKIVPRDCGCKPCICTVPEVSSVFIFPPKPKDVLTITLTPKVTCVVVDISKDDPEVQFSWFVDDVEVHTAQTKPREEQFNSTFRSVSELPIMHQDWLNGKEFKCRVNSAAFPAPIEKTISKTKGRPKAPQVYTIPPPKEQMAKDKVSLTCMITNFFPEDITVEWQWNGQPAENYKNTQPIMDTDGSYFVYSKLNVQKSNWEAGNTFTCSVLHEGLHNHHTEKSLSHSPG light: DIQMTQTSSSLSASLGDRVTISCRASQDITNYLNWYQQKPDGTIKLLIYYTSRLHSGVSSRFSGSGSGTDYSLTISNLEQEDIATYFCQQGNTLPLTFDTGTKLELKRADAAPTVSIFPPSSEQLTSGGASVVCFLNNFYPKDINVKWKIDGSERQNGVLNSWTDQDSKDSTYSMSSTLTLTKDEYERHNSYTCEATHKTSTSPIVKSFNRNEC | 5.36 nM | 0.000364 s⁻¹ | 67900 M⁻¹ s⁻¹
Mutation 1-28 (antibody, assembled FR/CDR/constant) heavy: EVQMVESGGGLLKPGGSLKLSCAASGFTYSNYAMSWVRQTPEKRLEWVATISSGGSYSYYPDSVKGRFTISRDNAKNTLYLQMLSLRSEDTAMYYCARRDNYPGSTFMDYWGQGSSVTVSSAKTTPPSVYPLAPGSAAQTNSMVTLGCLVKGYFPEPVTVTWNSGSLSSGVHTFPAVLQSDLYTLSSSVTVPSSTWPSQTVTCNVAHPASSTKVDKKIVPRDCGCKPCICTVPEVSSVFIFPPKPKDVLTITLTPKVTCVVVDISKDDPEVQFSWFVDDVEVHTAQTKPREEQFNSTFRSVSELPIMHQDWLNGKEFKCRVNSAAFPAPIEKTISKTKGRPKAPQVYTIPPPKEQMAKDKVSLTCMITNFFPEDITVEWQWNGQPAENYKNTQPIMDTDGSYFVYSKLNVQKSNWEAGNTFTCSVLHEGLHNHHTEKSLSHSPG light: DIQMTQTSSSLSASLGDRVTISCRASQDITNYLNWYQQKPDGTIKLLIYYTSRLHSGVSSRFSGSGSGTDYSLTISNLEQEDIATYFCQQGHTLPLTFDTGTKLELKRADAAPTVSIFPPSSEQLTSGGASVVCFLNNFYPKDINVKWKIDGSERQNGVLNSWTDQDSKDSTYSMSSTLTLTKDEYERHNSYTCEATHKTSTSPIVKSFNRNEC | 3.68 nM | 4.31e-05 s⁻¹ | 11700 M⁻¹ s⁻¹
Mutation 1-27 (antibody, assembled FR/CDR/constant) heavy: not shown light: DIQMTQTSSSLSASLGDRVTISCRASQDITNYLNWYQQKPDGTIKLLIYYTSRLHSGVSSRFSGSGSGTDYSLTISNLEQEDIATYFCQQGNTIPLTFDTGTKLELKRADAAPTVSIFPPSSEQLTSGGASVVCFLNNFYPKDINVKWKIDGSERQNGVLNSWTDQDSKDSTYSMSSTLTLTKDEYERHNSYTCEATHKTSTSPIVKSFNRNEC | 6.3 nM | 0.000501 s⁻¹ | 79600 M⁻¹ s⁻¹
Mutation 1-26 (antibody, assembled FR/CDR/constant) heavy: EVQMVESGGGLLKPGGSLKLSCAASGFTYSNYAMSWVRQTPEKRLEWVATISSGGSYSFYPDSVKGRFTISRDNAKNTLYLQMLSLRSEDTAMYYCARRDNYYGSTFMDYWGQGSSVTVSSAKTTPPSVYPLAPGSAAQTNSMVTLGCLVKGYFPEPVTVTWNSGSLSSGVHTFPAVLQSDLYTLSSSVTVPSSTWPSQTVTCNVAHPASSTKVDKKIVPRDCGCKPCICTVPEVSSVFIFPPKPKDVLTITLTPKVTCVVVDISKDDPEVQFSWFVDDVEVHTAQTKPREEQFNSTFRSVSELPIMHQDWLNGKEFKCRVNSAAFPAPIEKTISKTKGRPKAPQVYTIPPPKEQMAKDKVSLTCMITNFFPEDITVEWQWNGQPAENYKNTQPIMDTDGSYFVYSKLNVQKSNWEAGNTFTCSVLHEGLHNHHTEKSLSHSPG light: DIQMTQTSSSLSASLGDRVTISCRASQEITNYLNWYQQKPDGTIKLLIYYTSRIHSGVSSRFSGSGSGTDYSLTISNLEQEDIATYFCQQGHTLPLTFDTGTKLELKRADAAPTVSIFPPSSEQLTSGGASVVCFLNNFYPKDINVKWKIDGSERQNGVLNSWTDQDSKDSTYSMSSTLTLTKDEYERHNSYTCEATHKTSTSPIVKSFNRNEC | 1.38 nM | 3.48e-05 s⁻¹ | 25200 M⁻¹ s⁻¹

Other lines, results leading:

Kd | koff | kon | Binder
0.979 nM | 0.000521 s⁻¹ | 532000 M⁻¹ s⁻¹ | Mutation 1-33 (antibody, assembled FR/CDR/constant) heavy: EVQMVESGGGLLKPGGSLKLSCAASGFTFSNYAMSWVRQTPEKRLEWVATISSGGSYSFYPDSVKGRFTISRDNAKNTLYLQMLSLRSEDTAMYYCARRDNYPGSTFMDYWGQGSSVTVSSAKTTPPSVYPLAPGSAAQTNSMVTLGCLVKGYFPEPVTVTWNSGSLSSGVHTFPAVLQSDLYTLSSSVTVPSSTWPSQTVTCNVAHPASSTKVDKKIVPRDCGCKPCICTVPEVSSVFIFPPKPKDVLTITLTPKVTCVVVDISKDDPEVQFSWFVDDVEVHTAQTKPREEQFNSTFRSVSELPIMHQDWLNGKEFKCRVNSAAFPAPIEKTISKTKGRPKAPQVYTIPPPKEQMAKDKVSLTCMITNFFPEDITVEWQWNGQPAENYKNTQPIMDTDGSYFVYSKLNVQKSNWEAGNTFTCSVLHEGLHNHHTEKSLSHSPG light: DIQMTQTSSSLSASLGDRVTISCRASQDITNYLNWYQQKPDGTIKLLIYYTSRLHSGVSSRFSGSGSGTDYSLTISNLEQEDIATYFCQQGHTIPLTFDTGTKLELKRADAAPTVSIFPPSSEQLTSGGASVVCFLNNFYPKDINVKWKIDGSERQNGVLNSWTDQDSKDSTYSMSSTLTLTKDEYERHNSYTCEATHKTSTSPIVKSFNRNEC
8.38 nM | 0.000266 s⁻¹ | 31700 M⁻¹ s⁻¹ | Mutation 1-32 (antibody, assembled FR/CDR/constant) heavy: EVQMVESGGGLLKPGGSLKLSCAASGFTYSNYAMSWVRQTPEKRLEWVATISSGGSYSYYPDSVKGRFTISRDNAKNTLYLQMLSLRSEDTAMYYCARRDNYYGSSFMDYWGQGSSVTVSSAKTTPPSVYPLAPGSAAQTNSMVTLGCLVKGYFPEPVTVTWNSGSLSSGVHTFPAVLQSDLYTLSSSVTVPSSTWPSQTVTCNVAHPASSTKVDKKIVPRDCGCKPCICTVPEVSSVFIFPPKPKDVLTITLTPKVTCVVVDISKDDPEVQFSWFVDDVEVHTAQTKPREEQFNSTFRSVSELPIMHQDWLNGKEFKCRVNSAAFPAPIEKTISKTKGRPKAPQVYTIPPPKEQMAKDKVSLTCMITNFFPEDITVEWQWNGQPAENYKNTQPIMDTDGSYFVYSKLNVQKSNWEAGNTFTCSVLHEGLHNHHTEKSLSHSPG light: DIQMTQTSSSLSASLGDRVTISCRASQDITNYLNWYQQKPDGTIKLLIYYTSRIHSGVSSRFSGSGSGTDYSLTISNLEQEDIATYFCQQGNTIPLTFDTGTKLELKRADAAPTVSIFPPSSEQLTSGGASVVCFLNNFYPKDINVKWKIDGSERQNGVLNSWTDQDSKDSTYSMSSTLTLTKDEYERHNSYTCEATHKTSTSPIVKSFNRNEC
8.73 nM | 0.000744 s⁻¹ | 85200 M⁻¹ s⁻¹ | Mutation 1-31 (antibody, assembled FR/CDR/constant) heavy: not shown light: DIQMTQTSSSLSASLGDRVTISCRASQDITNYLNWYQQKPDGTIKLLIYYTSRIHSGVSSRFSGSGSGTDYSLTISNLEQEDIATYFCQQGNTLPLTFDTGTKLELKRADAAPTVSIFPPSSEQLTSGGASVVCFLNNFYPKDINVKWKIDGSERQNGVLNSWTDQDSKDSTYSMSSTLTLTKDEYERHNSYTCEATHKTSTSPIVKSFNRNEC
5.76 nM | 0.000163 s⁻¹ | 28300 M⁻¹ s⁻¹ | Mutation 1-30 (antibody, assembled FR/CDR/constant) heavy: EVQMVESGGGLLKPGGSLKLSCAASGFTYSNYAMSWVRQTPEKRLEWVATISSGGSYSFYPDSVKGRFTISRDNAKNTLYLQMLSLRSEDTAMYYCARRDNYFGSSFMDYWGQGSSVTVSSAKTTPPSVYPLAPGSAAQTNSMVTLGCLVKGYFPEPVTVTWNSGSLSSGVHTFPAVLQSDLYTLSSSVTVPSSTWPSQTVTCNVAHPASSTKVDKKIVPRDCGCKPCICTVPEVSSVFIFPPKPKDVLTITLTPKVTCVVVDISKDDPEVQFSWFVDDVEVHTAQTKPREEQFNSTFRSVSELPIMHQDWLNGKEFKCRVNSAAFPAPIEKTISKTKGRPKAPQVYTIPPPKEQMAKDKVSLTCMITNFFPEDITVEWQWNGQPAENYKNTQPIMDTDGSYFVYSKLNVQKSNWEAGNTFTCSVLHEGLHNHHTEKSLSHSPG light: DIQMTQTSSSLSASLGDRVTISCRASQEITNYLNWYQQKPDGTIKLLIYYTSRLHSGVSSRFSGSGSGTDYSLTISNLEQEDIATYFCQQGHTIPLTFDTGTKLELKRADAAPTVSIFPPSSEQLTSGGASVVCFLNNFYPKDINVKWKIDGSERQNGVLNSWTDQDSKDSTYSMSSTLTLTKDEYERHNSYTCEATHKTSTSPIVKSFNRNEC
7.59 nM | 0.000197 s⁻¹ | 26000 M⁻¹ s⁻¹ | Mutation 1-29 (antibody, assembled FR/CDR/constant) heavy: EVQMVESGGGLLKPGGSLKLSCAASGFTFSNYAMSWVRQTPEKRLEWVATISSGGSYSFYPDSVKGRFTISRDNAKNTLYLQMLSLRSEDTAMYYCARRDNYFGSSFMDYWGQGSSVTVSSAKTTPPSVYPLAPGSAAQTNSMVTLGCLVKGYFPEPVTVTWNSGSLSSGVHTFPAVLQSDLYTLSSSVTVPSSTWPSQTVTCNVAHPASSTKVDKKIVPRDCGCKPCICTVPEVSSVFIFPPKPKDVLTITLTPKVTCVVVDISKDDPEVQFSWFVDDVEVHTAQTKPREEQFNSTFRSVSELPIMHQDWLNGKEFKCRVNSAAFPAPIEKTISKTKGRPKAPQVYTIPPPKEQMAKDKVSLTCMITNFFPEDITVEWQWNGQPAENYKNTQPIMDTDGSYFVYSKLNVQKSNWEAGNTFTCSVLHEGLHNHHTEKSLSHSPG light: DIQMTQTSSSLSASLGDRVTISCRASQEITNYLNWYQQKPDGTIKLLIYYTSRIHSGVSSRFSGSGSGTDYSLTISNLEQEDIATYFCQQGNTIPLTFDTGTKLELKRADAAPTVSIFPPSSEQLTSGGASVVCFLNNFYPKDINVKWKIDGSERQNGVLNSWTDQDSKDSTYSMSSTLTLTKDEYERHNSYTCEATHKTSTSPIVKSFNRNEC
